# Experiment: soluble on expression in E. coli; label from the status in PepcDB or PDB records
row,Sequence,soluble on expression in E. coli
1,MHRASLICRLASPSRINAIRNASSGKSHISASTLVQHRNQSVAAAVKHEPFLNGSSSIYIEQMYEAWLQDPSSVHTSWDAYFRNVEAGAGPGQAFQAPPATAYAGALGVSPAAAQVTTSSAPATRLDTNASVQSISDHLKIQLLIRSYQTRGHNIADLDPLGINSADLDDTIPPELELSFYGLGERDLDREFLLPPTTFISEKKSLTLREILQRLKDIYCTSTGVEYMHLNNLEQQDWIRRRFEAPRVTELSHDQKKVLFKRLIRSTKFEEFLAKKWPSEKRFGLEGCEVLIPAMKQVIDSSSTLGVDSFVIGMPHRGRLNVLANVCRQPLATILSQFSTLEPADEGSGDVKYHLGVCIERLNRQSQKNVKIAVVANPSHLEAVDPVVMGKVRAEAFYAGDEKCDRTMAILLHGDAAFAGQGVVLETFNLDDLPSYTTHGAIHIVVNNQIGFTTDPRSSRSSPYCTDVGRVVGCPIFHVNVDDPEAVMHVCNVAADWRKTFKKDVIVDLVCYRRHGHNELDEPMFTQPLMYQRIKQTKTALEKYQEKILNEGVANEQYVKEELTKYGSILEDAYENAQKVTYVRNRDWLDSPWDDFFKKRDPLKLPSTGIEQENIEQIIGKFSQYPEGFNLHRGLERTLKGRQQMLKDNSLDWACGEALAFGSLLKEGIHVRLSGQDVQRGTFSHRHHVLHDQKVDQKIYNPLNDLSEGQGEYTVCNSSLSEYAVLGFELGYSMVDPNSLVIWEAQFGDFSNTAQCIIDQFISSGQSKWIRQSGLVMLLPHGYEGMGPEHSSARPERFLQMCNEDDEIDLEKIAFEGTFEAQQLHDTNWIVANCTTPANIYHLLRRQVTMPFRKPAVVFSPKSLLRHPMARSPVEDFQSGSNFQRVIPETGAPSQNPPDVKRVVFCTGKVYYDMVAARKHVGKENDVALVRVEQLSPFPYDLVQQECRKYQGAEILWAQEEHKNMGAWSFVQPRINSLLSIDGRATKYAGRLPSSSPATGNKFTHMQEQKEMMSKVFGVPKSKLEGFKA,not soluble
2,MHRTTRIKITELNPHLMCVLCGGYFIDATTIIECLHSFCKTCIVRYLETSKYCPICDVQVHKTRPLLNIRSDKTLQDIVYKLVPGLFKNEMKRRRDFYAAHPSADAAN,soluble
3,MHSDEEIFKDTTTKALLQLLKKDIDFHEYCYQEIFPRGKEIKMNDNKNFKIYLVESGYFAYCLKNEYGDFGIISFVGGEIAINLIPLIKEEPEDAFLRCLTQVRCWVLDPDFVGRVLDENNQKAKFLLSNLLYTRKVYFKASKRTFMKKELRIRACLKEIGLYMGRVTKDKDFILPDEINNSILAQYANTTREYTNIIVLKLRKEGILDDSHKPWVIKKIDEL,not soluble
4,MHSGAYFFYAAPRAGTAGKQAMPIEGIDYRLVFASDVNPRDGLGLECWRGEQPLFEVFRDDVGRRFVVNLFASDVPLELLEAIIPTARRELGDFPRRSASRGVAKPG,soluble
5,MHSLDSYFQRTTAPKSAAQERREEFHEKVMRSADYIADKFVETVRPLVDEVADKLQSEMPEDMEGTAKRRLICELSRRFGVSISAFK,not soluble
6,MIADDPHLELRLAASERDLRAAQRLRYTVFVEELGGDGDLVDHAERLERDEFDDLCDHLLLIDRRRDAAALEDVVGVYRLLPGERAAGAGRFYCDSEYDLDPLRASGRRVLELGRSCVHPDYRGGAAVFLLWSGLADYALAQRTELLFGVASFHGTDIEALAEPLSYLHAFHLAPEELRVRARSEGGQRMDLIPPERIDRRAAMLAMPPLIKAYLRLGGVVGEGAWIDRAFNTTDVCLLMDTARMSARHRDFYARRTVSAE,not soluble
7,MIAITGASGQLGRLVIAQLLEKVPASDIVALVRDVNKVADLSAKGVQVKAADYNQPEALAFALQGVDKVLLISSSEVGQRAAQHRNVIEAAVKAGVKLVAYTSLLHADKSPLALAEEHRQTEALLKDSGLPHVLLRNGWYTENYAASIPAALEHGVFIGSAGEGKITSATREDFAAAAVAVLTQEGQAGKVYELAGDEPYTLVELAAEISKQSGKSIGYQNLSGAEFTAALVSAGLPDVFAQIIADSDVGASKGGLFDGGKHLSQLIGRPTTPLSAVVKATLKLEHHHHHH,not soluble
8,MIAKISHGSSLYGVLAYNQLKVDERHADVLFTSRIIEPQGDNPYTIGHLSRSFGDYLTANRKTEKPVLHISLNPDPKDCLSEERFVSLAEEYMRRMGFGDQPYIVYRHNDIGREHLHIVSVRVDETGRAISDSYEHGRSMKVCRELERQFGLVLATPKQWKEGLPLSPVGYGDGNLKGQLAGVIRPIAREWRFRTLGEYRAVLSLYGITVDEVKGEYGGREYHGLTYSATDREGNKIGKPFKSSVFGKETGVAALERRMHNAAAWEKTHKEVAAATAGKVAAAMQTAGHDRAQFERELMRQGIGVVFRQNETGRIYGATFIDHAAKAVFNGSRLGKEFSAGVFNDLFAGQEGIHLPQPSAEVEHPTRQQEHTDISQWDGQDTGYRPDHKDGTTQNVAAAFNLFAPVPGGASGDQPVPLRKRKKKRKYGRQQLEHHHHHH,not soluble
9,MIALHFGAGNIGRGFIGALLHHSGYDVVFADVNETMVSLLNEKKEYTVELAEEGRSSEIIGPVSAINSGSQTEELYRLMNEAALITTAVGPNVLKLIAPSIAEGLRRRNTANTLNIIACENMIGGSSFLKKEIYSHLTEAEQKSVSETLGFPNSAVDRIVPIQHHEDPLKVSVEPFFEWVIDESGFKGKTPVINGALFVDDLTPYIERKLFTVNTGHAVTAYVGYQRGLKTVKEAIDHPEIRRVVHSALLETGDYLVKSYGFKQTEHEQYIKNQRSLLKSFHFGRCDPRSEVTSQKTGRKCRLVGPAKKIKEPNALAEGIAAALRFDFTGDPEAVELQALIEEKDTAAYFK,not soluble
10,MIATGDALNLLSKMTFKRLITLLKVFVSYQYSKITGNVVHPSVPYSIAIEPTTSCNLRCPECPSGLRSFTRPTGMLNIAMFSKIIDELYQQISYLIFYFQGEPYLNTSFLEMVKYASSKGIYTATSTNAHYLTDENARKTVESGLDRLIISIDGTTQEVYEQYRIGGSLEKVLEGTKNILAWKKKLHASTPHVIFQFLVVKPNQHQLKEVKKMAKELGVGEVRFKTAQIHDYENGSPLIPDIDKYARYRKNADNTYSIKNSLLNHCWKMWHSCVITWDGKIVPCCFDKDAHLVMGELKTNTFKEIWNSAPYIQFRKSLLKSRSEIDMCKNCTEGTTVWA,not soluble
11,MIDELATKANVALKAMEDFTQEQVDHIVHQMAMAALDQHMPLAKMAVEETGRGIYEDKAIKNMYASEYIWNNIKHDKTVGVINKDEQTGLMEIAEPVGVVCGVTPTTNPTSTTIFKSLIALKTRNPIVFAFHPSAQKCSAEAARIVRDAAIAAGAPENCIQWIEQPSIDATSALMNHPGIAIVLATGGAGMVKSAYSTGKPALGVGPGNVPAYIEKTAKVKRAVNDLIVSKSFDNGMICASE,not soluble
12,MIDFSNIETYWPMTSSAFGLFITQGGLKPIFTSLNHMWYSKYGYLTERKAKLKEIENEYIYEIEKRKLENQEKFKNEIDCEFSKIPQTSLKEPVEYILYPAINESEQYLSNETLRNMFARTIASTFNQDKEKDLHSAFVQIIKQMTPLDAQNLLLINQEGNNLIANLQIGVHYSKENLSGTVNKANNIYLSKLDYSPDIIASSIDNLTRLGLIKVDYLHYPLDSNYESIKQTTIYKSLESEINTLNLFKTSNTKYDIKIEKGKVSLTDFGKKFISVCLE,not soluble
13,MIDGAEVSVSRGKNNPFYFNSDRWFHTLFRNQFGHLRVLQRFDQRSKQMQNLENYRVVEFNSKPNTLLLPHHADADFLLVVLNGRAVLTLVNPDGRDSNILEQGHAQKIPAGTTFFLVNPDDEENLRIIKLAVPVNNPHRFQDFFLSSTEAQQSYLQGFSKNILEASFDSDIKEISRVLFGEEGQQQQQGQESQQEGVIVELKREQIRELTKHAKSSSKKSLSSEDQPFNLRNQKPIYSNKLGRWFEITPEKNPQLRDLDMFIRSVDMKEGSLLLPHYNSKAIVILVINEGKANIELVGQREQQKQQEEQEESWEVQRYRAELSEDDVFIIPATYPVAINATSNLNFFAFGINAENNQRNFLAGEKDNVISEIPTEVLDVTFPASGEKVQKLIKKQSESQFVDAQPEQQEREEARKGGKGPFVY,soluble
14,MIDISHGHTSCSSHRSSSLPSVFWKIHLSPPLPSFKFKKSTESTQRQTIPKFSSPASSLAPSTPLWSLSSCLLVSEVSFWPGAGFLYNDLVCLDREDHCLSNSASHSCG,soluble
15,MIDNLIKKEFLAHKEALEKSLEGLQEALKQSVHLLIETLENQGKILICGNGGSASDAQHFAAELTGRYKLERKGLSAISLNTDISALTAIANDYGYEEVFARQVEALGVKNDVLIGISTSGNSKNVLKAYEKAKDLEMKTLSLAGRDGGKMKPLSDMALIVPSDDTPRIQEMHILMIHILCDCIERHFAHKN,not soluble
16,MIDQFKFLNPQALISIFGKIPKFEESELLDVRLKRDGPTLVIQLMTKENVENKPKRWNKWDVIYVEISFFTIHNLTIKGLGTENIIDYFEINTIEEEGLLKIKCKNQMLVECSFEWAKVEGVTPGLIGLP,not soluble
17,MIDVIEAGLFTTVQDGGRFGYRHAGVPAGGAMDAWAYRLANALVGNNGDEAVLEATIAGPTLRFRVEAVVAVCGGDFPCTLNGRTFALWKPMAVEPGDVLEVGVCRTGFRAYIAVSGGIDVPPVMGSRSTYVPAQLGGLSGRPLQRGDALPVGVTHGRRVIGRMRWGLASAARRYIGGKTKTVRAVPGPEYDEFTPASRRQFFAARYEVTTQSDRIGYRLSGPTLALVREREMVSEAVVFGTVQVPASGQPIVLMADSQTTGGYPRIAQVAAVDLPILAQARPGDFIQFQPIGPEEAMWLYKEQQQRLARWITAIRRQWEGER,not soluble
18,MIEFFLPMDKIPTTTHQQKKVTVINGKPHFYEPESLKNARDKFTSLLAQHVPPSKLDGPIRLTVKWLFPKIKGSTNGQYKTTKPDTDNLQKLLKDCMTELGFWNDDAQVASEIIEKFWADTVGIYVKVEEL,not soluble
19,MIEFNHVSKTFGDQQAVSDLNLHFSEGSFSVLIGTSGSGKSTTLKMINRLVEHDSGTIRFAGEEIRSLPVLELRRRMGYAIQSIGLFPHWTVAQNIATVPQLQKWSRARINDRIDELMALLGLESALRDRYPHQLSGGQQQRVGVARALAADPQVLLMDEPFGALDPVTRGALQQEMTRIHQLLGRTIVLVTHDIDEALRLADHLVLMDGGHVIQQGSPLSMLTSPENDFVQAFFGRSELGVRLLSLRSVGDYVRRHEQLSGDALVEEMTLRDALSMFVARRCDVLPVANQQGEPCGTLHFRDLLSETSPRETTV,not soluble
20,MIEGHGDDSYKYRHPIRSNFSSNVYNKVNLDGLRAHLCGRISAISAYPEPEPYTLEARLADRHALPAASVCVTNGATEAIYLIAQTFRGTNTAILMPTFSEYADACRMHGHKVTSLYTLDAVPEDVRMVWLCNPNNPTGEVRDKKYLTELIAKHPRVCFVIDQSYEYFTLKELFTAQEAAGFPNVILLHSMTKRYAIPGLRLGYVTAHPGLIGRLRTNRMPWSVNQLAIEAGLYLLSEGIPAGLSMKDYLAECARLKSSLEAIGGLEVWPTDTHFMLVCLRFGKAAALKEYLAREEGILIRDASNFEGLDERFFRIATQTPEENDELVGAIAKWMAE,not soluble
21,MIEIEINNAQEITSALERLAQATAHRAPLMRSIAGTMESAVAQNFEVGGRPAWKKLKIRQGTPLVDTENLMASITSEYNNNEAIVGTNEPYAAIHQFGGKAGRGRKVAIPARPFLILTPQDEADILEDIQDYFQLLIK,not soluble
22,MIEVISATALATVQDLGRHGSLGYGVGTSGAMDTLSLRLGNLLLGNAEDAAGIEIPLFPFEVRFVEDCTFAITGAACSAKLDGGRLPGNWAAQARKGQVLKLSYPTTGSRAYLCLAGGVDVPPVLGSRSTQLRGAFGGWQGRALQQGDVIPAGAANQQRAGDFGLESAVAGLPLMLDGLPAIRVLPAAEFDCFSVEAQDTFFAGEWKITTQSNRYGYRMEGTPLLAREALEIRSHGIVPGVIQVPHGGQPIVQMRDAQPSGGYPKFATVIEADLWRLGQAPIGSKVRFVQCSYEQAIEALDTNHAFIEDARRLLALRGLQGHRLEHHHHHH,not soluble
